This note sets out measurements from the supplement of paper PMC11908140.

The labels stand for the following.
B1: library; numbered along this chain (parent)
chain: MRKPRAAVGSGHRKQAASQEGRQKHAKNNSQAKPSACDGLARQPEEVVLQASVSSYHLFRDVAEVTAFRGSLLSWYDQEKRDLPWRRRAEDEMDLDRRAYAVWVSEVMLQQTQVATVINYYTGWMQKWPTLQDLASASLEEVNQLWAGLGYYSRGRRLQEGARKVVEELGGHMPRTAETLQQLLPGVGRYTAGAIASIAFGQATGVVDGNVARVLCRVRAIGADPSSTLVSQQLWGLAQQLVDPARPGDFNQAAMELGATVCTPQRPLCSQCPVESLCRARQRVEQEQLLASGSLSGSPDVEECAPNTGQCHLCLPPSEPWDQTLGVVNFPRKASRKPPREESSATCVLEQPGALGAQILLVQRPNSGLLAGLWEFPSVTWEPSEQLQRKALLQELQRWAGPLPATHLRHLGEVVHTFSHIKLTYQVYGLALEGQTPVTTVPPGARWLTQEEFHTAAVSTAMKKVFRVYQGQQPGTCMGSKRSQVSSPCSRKKPRMGQQVLDNFFRSHISTDAHSLNSAAQ

The variants in the data set derive from B1. The data set can be described thus: 8OG:A repair function score (normalized; synonymous = 0, nonsense = -1) (normalized log-likelihood score); higher = more repair activity (WT-like). Particulars: with 8OG:A DNA repair reporter (GFP) in HEK-293 MUTYH KO cells. The gist of the method: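 Lentiviral MUTYH cDNA NNN codon-scan libraries in HEK-293 MUTYH knockout cells (10 pg/ml doxycycline) were co-transfected with an 8OG:A GFP repair reporter plus mCherry. At 72 h, viable mCherry+ cells were sorted into GFP+ (repair) and GFP− bins, three replicates per tile, then tile amplicons were sequenced. Per-tile Rosace fitness scores became a normalized repair function score anchored on synonymous and nonsense distributions. Synonymous medians were set to 0 and nonsense to -1; variants under 300 counts per million at the start were removed.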
On to MRKPRAAVGSGHRKQAASQEGRQKHAKNNSQAKPSACDGLARQPEEVVLQASVSSYHLFRDVAEVTAFRGSLLSWYDQEKRDLPWRRRAEDEMDLDRRAYAVWVSEVMLQQTQVATVINYYTGWMQKWPTLQDLASASLEEVNQLWAGLGYYSRGRRLQEGARKVVEELGGHMPRTAETLQQLLPGVGRYTAGAIASIAFGQATGVVDGNVARVLCRVRAIGADPSSTLVSQQLWGLAQQLVDPARPGDFNQAAMELGATVCTPQRPLCSQCPVESLCRARQRVEQEQLLASGSLSGSPDVEECAPNTGQCHLCLPTSEPWDQTLGVVNFPRKASRKPPREESSATCVLEQPGALGAQILLVQRPNSGLLAGLWEFPSVTWEPSEQLQRKALLQELQRWAGPLPATHLRHLGEVVHTFSHIKLTYQVYGLALEGQTPVTTVPPGARWLTQEEFHTAAVSTAMKKVFRVYQGQQPGTCMGSKRSQVSSPCSRKKPRMGQQVLDNFFRSHISTDAHSLNSAAQ [P317T], for which the “8OG:A repair function score” value is -0.0225. Turning to MRKPRAAVGSGHRKQAASQEGRQKHAKNNSQAKPSACDGLARQPEEVVLQASVSSYHLFRDVAEVTAFRGSLLSWYDQEKRDLPWRRRAEDEMDLDRRAYAVWVSEVMLQQTQVATVINYYTGWMQKWPTLQDLASASLEEVNQLWAGLGYYSRGRRLQEGARKVVEELGGHMPRTAETLQQLLPGVGRYTAGAIASIAFGQATGVVDGNVARVLCRVRAIGADPSSTLVSQQLWGLAQQLVDPARPGDFNQAAMELGATVCTPQRPLCSQCPVESLCRARQRVEQEQLLASGSLSGSPDVEECAPNTGQCHLCLPYSEPWDQTLGVVNFPRKASRKPPREESSATCVLEQPGALGAQILLVQRPNSGLLAGLWEFPSVTWEPSEQLQRKALLQELQRWAGPLPATHLRHLGEVVHTFSHIKLTYQVYGLALEGQTPVTTVPPGARWLTQEEFHTAAVSTAMKKVFRVYQGQQPGTCMGSKRSQVSSPCSRKKPRMGQQVLDNFFRSHISTDAHSLNSAAQ [P317Y], the “8OG:A repair function score” value was -0.0115. As for MRKPRAAVGSGHRKQAASQEGRQKHAKNNSQAKPSACDGLARQPEEVVLQASVSSYHLFRDVAEVTAFRGSLLSWYDQEKRDLPWRRRAEDEMDLDRRAYAVWVSEVMLQQTQVATVINYYTGWMQKWPTLQDLASASLEEVNQLWAGLGYYSRGRRLQEGARKVVEELGGHMPRTAETLQQLLPGVGRYTAGAIASIAFGQATGVVDGNVARVLCRVRAIGADPSSTLVSQQLWGLAQQLVDPARPGDFNQAAMELGATVCTPQRPLCSQCPVESLCRARQRVEQEQLLASGSLSGSPDVEECAPNTGQCHLCLPWSEPWDQTLGVVNFPRKASRKPPREESSATCVLEQPGALGAQILLVQRPNSGLLAGLWEFPSVTWEPSEQLQRKALLQELQRWAGPLPATHLRHLGEVVHTFSHIKLTYQVYGLALEGQTPVTTVPPGARWLTQEEFHTAAVSTAMKKVFRVYQGQQPGTCMGSKRSQVSSPCSRKKPRMGQQVLDNFFRSHISTDAHSLNSAAQ [P317W], the “8OG:A repair function score” value was -0.205. MRKPRAAVGSGHRKQAASQEGRQKHAKNNSQAKPSACDGLARQPEEVVLQASVSSYHLFRDVAEVTAFRGSLLSWYDQEKRDLPWRRRAEDEMDLDRRAYAVWVSEVMLQQTQVATVINYYTGWMQKWPTLQDLASASLEEVNQLWAGLGYYSRGRRLQEGARKVVEELGGHMPRTAETLQQLLPGVGRYTAGAIASIAFGQATGVVDGNVARVLCRVRAIGADPSSTLVSQQLWGLAQQLVDPARPGDFNQAAMELGATVCTPQRPLCSQCPVESLCRARQRVEQEQLLASGSLSGSPDVEECAPNTGQCHLCLPVSEPWDQTLGVVNFPRKASRKPPREESSATCVLEQPGALGAQILLVQRPNSGLLAGLWEFPSVTWEPSEQLQRKALLQELQRWAGPLPATHLRHLGEVVHTFSHIKLTYQVYGLALEGQTPVTTVPPGARWLTQEEFHTAAVSTAMKKVFRVYQGQQPGTCMGSKRSQVSSPCSRKKPRMGQQVLDNFFRSHISTDAHSLNSAAQ [P317V]: the “8OG:A repair function score” value worked out at 0.0214. Turning to MRKPRAAVGSGHRKQAASQEGRQKHAKNNSQAKPSACDGLARQPEEVVLQASVSSYHLFRDVAEVTAFRGSLLSWYDQEKRDLPWRRRAEDEMDLDRRAYAVWVSEVMLQQTQVATVINYYTGWMQKWPTLQDLASASLEEVNQLWAGLGYYSRGRRLQEGARKVVEELGGHMPRTAETLQQLLPGVGRYTAGAIASIAFGQATGVVDGNVARVLCRVRAIGADPSSTLVSQQLWGLAQQLVDPARPGDFNQAAMELGATVCTPQRPLCSQCPVESLCRARQRVEQEQLLASGSLSGSPDVEECAPNTGQCHLCLPPDEPWDQTLGVVNFPRKASRKPPREESSATCVLEQPGALGAQILLVQRPNSGLLAGLWEFPSVTWEPSEQLQRKALLQELQRWAGPLPATHLRHLGEVVHTFSHIKLTYQVYGLALEGQTPVTTVPPGARWLTQEEFHTAAVSTAMKKVFRVYQGQQPGTCMGSKRSQVSSPCSRKKPRMGQQVLDNFFRSHISTDAHSLNSAAQ [S318D], the “8OG:A repair function score” value was -0.0363. Turning to MRKPRAAVGSGHRKQAASQEGRQKHAKNNSQAKPSACDGLARQPEEVVLQASVSSYHLFRDVAEVTAFRGSLLSWYDQEKRDLPWRRRAEDEMDLDRRAYAVWVSEVMLQQTQVATVINYYTGWMQKWPTLQDLASASLEEVNQLWAGLGYYSRGRRLQEGARKVVEELGGHMPRTAETLQQLLPGVGRYTAGAIASIAFGQATGVVDGNVARVLCRVRAIGADPSSTLVSQQLWGLAQQLVDPARPGDFNQAAMELGATVCTPQRPLCSQCPVESLCRARQRVEQEQLLASGSLSGSPDVEECAPNTGQCHLCLPPFEPWDQTLGVVNFPRKASRKPPREESSATCVLEQPGALGAQILLVQRPNSGLLAGLWEFPSVTWEPSEQLQRKALLQELQRWAGPLPATHLRHLGEVVHTFSHIKLTYQVYGLALEGQTPVTTVPPGARWLTQEEFHTAAVSTAMKKVFRVYQGQQPGTCMGSKRSQVSSPCSRKKPRMGQQVLDNFFRSHISTDAHSLNSAAQ [S318F], the “8OG:A repair function score” value was -0.00953.
